Measurements taken from the DeepSol protein solubility set.

Experiment: soluble on expression in E. coli; label from the status in PepcDB or PDB records

Row | Sequence | soluble on expression in E. coli
1 | AHHHHHHGSENPYEIVGVVAREILDSRGNPTVEVDVYTHVGMGRAAVPSGASTGTHEALELRDGGKRYHGKGVRRAVENVNKIIAPELIGMDVRWQREIDALLLELDGTENKSNVGANAILAVSLAVAKAAANSLELPLYQYLGGVNAYVLPVPLSNVINGGVHAGNDLDFQEFMIMPIGADSFREAIRWVSETYHVLKKVIMEKYGKNAVNVGDEGGFAPPMKEVTEPLDVLIKAIEEAGYKPGDEIALALDVASSELFNEETGKYVVGGKEYDRGELLELYKDLTSTYPIVSIEDPFHEEDWEGFVMITKELGHKVQIVGDDLFVTNPKRLRKGIELGAANALLLKVNQIGTLSEAMDAAFTAFRAGYGVIVSHRSGETEDATIADLAVALNAGQIKTGAPARSDRNAKYNQLIRIEEELEGVAVYAGKRFRKVFF | soluble
2 | AHHHHHHGSERAFIEWYPRGYGVAFKIKKKIYEKLSKYQKIEVYETEGFGRLLALDGTVQLVTLGERSYHEPLVHPAMLAHPKPKRVLVIGGGDGGTVREVLQHDVDEVIMVEIDEDVIMVSKDLIKIDNGLLEAMLNGKHEKAKLTIGDGFEFIKNNRGFDVIIADSTDPVGPAKVLFSEEFYRYVYDALNNPGIYVTQAGSVYLFTDELISAYKEMKKVFDRVYYYSFPVIGYASPWAFLVGVKGDIDFTKIDRERAKKLQLEYYDPLMHETLFQMPKYIRETLQRL | soluble
3 | AHHHHHHGSIDPRELAISAKLEGVKRIIPVVSGKGGVGKSLISTTLALVLSEQKYKVGLLDLDFHGASDHVILGFEPKELPEEDKGVIPPTVHGIKFMTIAYYTEDRPTPLRGKEISDALIELLTITRWDELDFLVVDMPPGMGDQFLDVLKYFKRGEFLIVATPSKLSLNVVRKLIELLKEEKHQILGIVENMKLDEEEDVMRIAQEYGIRYLGGIPLYRDLESKVGNVNELLATEFAEKIRGIAKKI | soluble
4 | AHHHHHHGSKKKYKKVVVGGTFDRLHLGHKALLRKAFEVGEIVYIGLTSDEMIKEKQYSERILPYEKRLLDLIKFLEVNKYRNYRIMKIHNAIGFTTKIKSLEAIVVSEETYKGAVLVNKAREELGLRPLDIVVIPIIRSRLGCKISSSLIRAGLIDPFGNPIRREEK | not soluble
5 | AHHHHHHGSKVLVTGFEPFGGEKINPTERIAKDLDGIKIGDAQVFGRVLPVVFGKAKEVLEKTLEEIKPDIAIHVGLAPGRSAISIERIAVNAIDARIPDNEGKKIEDEPIVPGAPTAYFSTLPIKKIMKKLHERGIPAYISNSAGLYLCNYVMYLSLHHSATKGYPKMSGFIHVPYIPEQIIDKIGKGQVPPSMCYEMELEAVKVAIEVALEELL | soluble
6 | AHHHHHHGSVKVTFLGHAAFYIEGSKKILIDPFLSGNPVASAKPDDFKSVDLILVTHAHGDHLGDVGTIAKRTGAKVVAMYDLANYIAEKYKGVETIGMNYGPTKVDEVEIVQVPAWHSSSDGKYSIGNACGYIVKLDGVTIYHAGDTYVFKDMELFAELYGPIDVALLPIGGHFTMGVREAAKAVELLKPRHVIPMHYNTWPPIAADPEEFKKLVGEKAKVVILKPGESLEL | not soluble
7 | AHHHHHHSSGLEVLFQGPNELNYGQLSISPIFQGGSYQLNNKSIDISSLLLDKLSGESQTVVMKFKADKPNSLQALFGLSNSKAGFKNNYFSIFMRDSGEIGVEIRDAQKGINYLFSRPASLWGKHKGQAVENTLVFVSDSKDKTYTMYVNGIEVFSETVDTFLPISNINGIDKATLGAVNREGKEHYLAKGSIDEISLFNKAISDQEVSTIPLSNPFQLIFQSGDSTQANYFRIPTLYTLSSGRVLSSIDARYGGTHDSKSKINIATSYSDDNGKTWSEPIFAMKFNDYEEQLVYWPRDNKLKNSQISGSASFIDSSIVEDKKSGKTILLADVMPAGIGNNNANKADSGFKEINGHYYLKLKKNGDNDFRYTVRENGVVYNETTNKPTNYTINDKYEVLEGGKSLTVEQYSVDFDSGSLRERHNGKQVPMNVFYKDSLFKVTPTNYIAMTTSQNRGESWEQFKLLPPFLGEKHNGTYLCPGQGLALKSSNRLIFATYTSGELTYLISDDSGQTWKKSSASIPFKNATAEAQMVELRDGVIRTFFRTTTGKIAYMTSRDSGETWSKVSYIDGIQQTSYGTQVSAIKYSQLIDGKEAVILSTPNSRSGRKGGQLVVGLVNKEDDSIDWKYHYDIDLPSYGYAYSAITELPNHHIGVLFEKYDSWSRNELHLSNVVQYIDLEINDLTK | soluble
8 | AIAADRTVPHAYPMSMDYEMCTPPRIYDQNFAEALSPKELLAPVLYHGYYIRPRINKQLERGFSQVESEDDWYRVLLDVCQFTPDEISVRTVDNLLEVSARHAQRMDQHGFVSREFTRTYILPMGVDPLLVQVSLSHDGILCIQAPRKTEDLEPQINQLKIKVEKKESTSK | soluble
9 | AIAAEMKTYSHRTMPSACTLVMCSSVESGLPGRDGRDGREGPRGEKGDPGLPGAAGQAGMPGQAGPVGPKGDNGSVGEPGPKGDTGPS | soluble
10 | AIAARPPPDPLYILRGSGASVNALHFCCDGDGPPLLYSGSGKGAVHVWNLSTRRAERVLESHAGNSVIWLNTFNNSRSCLISQGRDMRVCVWDLSEGRSAVTDSLHTGSVGFCQCSLLGSRLGSTLLAHPTQHMEEVSVVEMSSWTQVCSLKPDSNLGMLMSMKMWQADSGPVLCAGYEDGSVVLWDVSHRRPFSLLKVHPEPVMSLDVDVCRQKGISGSSENILQSWRLDNQQSLQMHDSIQMTNPGVSQLRIRADGKILASAGWDNNIRVFGWKKLKPLAVLQHHTDMVNSVAFSDHQDPTQRLLAAGSKDQRISVWSIYSES | soluble
11 | AIAEEWDVPQMKKEVESLKYQLAFQREMASKTIPELLKWIEDGIPKDPFLNPDLMKNNPWVEKGKCTIL | soluble
12 | AIAGCASAKHVSTVQNEDDAQNGKNYQNGDAFCDEYRIKPVEEVKYMKNGEEEEQKILSKNQENLVSCLEEKSATHTARSKSNTEAAGAGHPYRINIHISESQQEFFRMLDEKIEKGRDYCSEEEDIT | soluble
13 | AIAPTATYAALIHADLDVLWGLLLDKLQSDEQFMPGLERAEIVPLSVAEDPTGVARFRQQHDRRLYFSDGRLVEERVTIDEERKNILLELRNDARYTGYVSTVLLPCPFPEATSGAHVLVRTMDWRAKRSLTDDEIEEGELLATKIRESTLRLKHEVESLRWSLDDSKDPDDE | soluble
14 | AIARGPEPGPQPTMEGDVLDTLEALGYKGPLLEEQALTKAAEGGLSSPEFSELCIWLGSQIKSLCNLEESITSAGRDDLESFQLEISGFLKEMACPYSVLISGDIKDRLKKKEDCLKLLLFLSTELQASQILQNKKHKNSQLDKNSEVYQEVQAMFDTLGIPKSTTSDIPHMLNQVESKVKDILSKVQKNHVGKPLLKMDLNSEQAEQLERINDALSCEYECRRRMLMKRLDVTVQSFGWSDRAKVKTDDIARIYQPKRYALSPKTTITMAHLLAAREDLSKIIRTSSGTSREKTACAINKVGVSFSTVENELMISYLMFLQILVYFSFMSW | soluble
15 | AIASARVRSRSRGRGDGQEAPDVVAFVAPGESQQEEPPTDNQDIEPGQEREGTPPIEERKVEGDCQEMDLEKTRSERGDGSDVKEKTPPNPKHAKTKEAGDGQP | soluble
16 | AIELVPEHQTVPVSIGVPATLRCSMKGEAIGNYYINWYRKTQGNTMTFIYREKDIYGPGFKDNFQGDIDIAKNLAVLKILAPSERDEGSYYCACDTLGMGGEYTDKLIFGKGTRVTVEPRSQPHTKPSVFVMKNGTNVACLVKEFYPKDIRINLVSSKKITEFDPAIVISPSGKYNAVKLGKYEDSNSVTCSVQHDNKTVHSTDFEVKTDSTDHVKPKETENTKQPSKS | soluble
17 | AKQQKHFVLVHGGCLGAWIWYKLKPLLESAGHKVTAVDLSAAGINPRRLDEIHTFRDYSEPLMEVMASIPPDEKVVLLGHSFGGMSLGLAMETYPEKISVAVFMSAMMPDPNHSLTYPFEKYNEKCPADMMLDSQFSTYGNPENPGMSMILGPQFMALKMFQNCSVEDLELAKMLTRPGSLFFQDLAKAKKFSTERYGSVKRAYIFCNEDKSFPVEFQKWFVESVGADKVKEIKEADAMGMLSQPREVCKCLLDISDS | soluble
18 | AKSVVSHSLTTLGVEVSKPPPQHDKIEASEPSFPLHESILKVVEEEWQQIDRQLPSVACRYPVSSIEAARILSVPKVDDEILGFISEATPAAATQASSTESCDKHLDLALCRSYEAAASALQIAAHTAFVAKSLQADISQAAQIINSDPSDAQQALRILNRTYDAASYLCDAAFDEVRMSACAMGSSTMGRRYLWLKDCKISPASKNKLTVAPFKGGTLFGGEVHKVIKKRGNKQ | soluble
19 | AKVATGTDILSAASNVSLQKARTWDEGVESKFSTTPVNDIFKDKKVVIFGLPGAYTGVCSSKHVPPYKHNIDKFKAKGVDSVICVAINDPYTVNAWAEKIQAKDAIEFYGDFDGSFHKSLELTTDLSAGLLGIRSERWSAYVVDGKVKALNVEESPSDVKVSGAETILGQI | soluble
20 | ALGVPFFSCQRGYKGVWRGDGIMQTTCPCGAQITGHVKNGSMRIVGPRTCSNTWHGTFPINAYTTGPCTPSPAPNYSRALWRVAAEEYVEVTRVGDFHYVTGMTTDNVKCPCQVPAPEFFTEVDGVRLHRYAPACKPLLREEVTFLVGLNQYLVGSQLPCEPEPDVAVLTSMDDDDK | soluble
21 | ALMGGIVDVEGAQNSAEVEELARFAVDEHNKKENALLQFSRLVKAKQQVVSGIMHHLTVEVIEGGKKKVYEAKVWVQAWLNSKKLHEFSPI | soluble
22 | ANQLRELKQTHTYTVFGYTDGGFAVISADDLAPELLGVSESNFVETDNPSFKWWLKAIDEVITNAVKSNKPLNVIKPDPSKYAAEVSTLLTTTWGQQMPYNKLLPKTKKGRLITGAVATATAQVLNYFKYPVRGIGSHTVHYPANDPSGVAISADFGNTTYDWANMKDNYSGNYTEAEANAVATLMLHCGVASEMQYGGPNEGSGAYMTDCAAGLRTYFGFTDAEYITRANYTDEQWMDIVFSELTKGHPLIYGGVSPGSMGQDAGHAFVIDGYNKAGLVSVNWGWNGDVDGYYKIDLLNPGNMYSFTAEQDMVRGVYGKP | soluble
23 | ANQQTSGKVLYEGKEFDYVFSIDVNEGGPSYKLPYNTSDDPWLTAYNFLQKNDLNPMFLDQVAKFIIDNTKGQMLGLGNP | soluble
24 | APKASLRLGFSEYSRISNLIVLHLRKVEEEEDESALKRSELVNWYLKEIESEIDSEEELINKKRIIEKVIHRLTHYDHVLIELTQAGLKGSTEGSESYEEDPYLVVNPNYLLED | soluble
25 | APSCPAGSLCTYSGTGLSGARTVIPASDMEKAGTDGVKLPASARSFANGTHFTLRYGPARKVTCVRFPCYQYATVGKVAPGAQLRSLPSPGATVTVGQDLGD | soluble
26 | APVISQISKDVVASVGDSVEFNCTVEEVGQLSVSWAKRPSESDTNSVVLSMRNILSLPDQRYNVTVTEGPKTGSAIYTFRIQNIEVSDMGPYECQVLVSATEKVTKKLSLQIKTPPVIAENTPKSTLVTEGQNLELTCHANGFPKPTISWAREHNAVMPAGGHLLAEPTLRIRSVHRMDRGGYYCIAQNGEGQPDKRLIRVEVEFRPQIAVQRPKIAQMVSHSAELECSVQGYPAPTVVWHKNGVPLQSSRHHEVANTASSSGTTTSVLRIDSVGEEDFGDYYCNATNKLGHADARLHLFQTVIPVPSLS | soluble
27 | AQELYKNENAPVHERVMDLISRLTVEEKISLLRATSPGIPRLGIDKYYHGNEALHGVVRPGRFTVFPQAIGLAATWNPELQKRVATVISDEARARWNELDQGREQKEQFSDVLTFWSPTVNMARDPRWGRTPETYGEDPFLSGIMGTAFVNGLQGDDPHYLKIVSTPKHFAANNEEHNRFVCNPQISEKQLREYYFPAFEMCVKEGKAASIMSAYNALNDVPCTLNPWLLQKVLRQDWGFQGYVVSDCGGPALLVNAHKYVKTKEAAATLSIKAGLDLECGDDVYDGPLLNAYKQYMVSDADIDSAAYHVLTARMKLGLFDS | not soluble
